According to patent US20150203579A1 (Regeneron, published 2015):
Where two headings read alike, the source gives them in different places. One block for each binder: values may come before it.

Legend:
[1] = biological target: T1, recombinant human PD-L1 expressed with a C-terminal mouse IgG2a Fc tag (human); assay: SPR Biacore 3000: 500 nM mAb alone (no hPD-1.hFc) over captured hPD-L1.mFc surface, control
T1 construct: also called hPD-L1-mFc; hPD-L1.mFc

[2] = biological target: T2, recombinant human PD-1 expressed with a C-terminal human IgG1 Fc tag (human); assay: SPR Biacore 3000: 100 nM hPD-1.hFc + 500 nM mAb to captured hPD-L1.mFc;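 also: inhibition study with anti-PD-1 mAbs, SPR responses tracked in real time and read at the close of each step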
T2 construct: also called hPD-1-hFc; hPD1-hFc

monkey PD-1 with mFc [3] = biological target: T3, monkey PD-1 with mFc (monkey); assay: SPR, captured mAb, 25 C;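 also: purified anti-PD-1 antibodies tested on Biacore 4000 or T200 instruments, rate constants obtained via 1:1 binding model fit, with KD as kd/ka and half-life as ln2/(60·kd)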
T3 construct: also called monkey PD-1-mFc; monkey PD-1 dimer
T3 chain: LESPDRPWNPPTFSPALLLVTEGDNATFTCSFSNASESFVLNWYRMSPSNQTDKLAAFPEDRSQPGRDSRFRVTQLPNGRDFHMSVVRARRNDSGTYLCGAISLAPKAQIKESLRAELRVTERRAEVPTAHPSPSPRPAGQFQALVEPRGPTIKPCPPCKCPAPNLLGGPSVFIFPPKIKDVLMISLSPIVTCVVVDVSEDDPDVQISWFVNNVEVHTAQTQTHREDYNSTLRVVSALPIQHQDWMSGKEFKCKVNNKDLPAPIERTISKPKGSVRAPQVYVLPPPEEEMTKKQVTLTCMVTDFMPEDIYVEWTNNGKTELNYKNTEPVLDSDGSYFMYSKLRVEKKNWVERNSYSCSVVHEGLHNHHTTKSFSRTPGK

[4] = biological target: T4, PD-1 chimera: extracellular domain of human PD-1 with trans-membrane and cytoplasmic domains of human CD300a, … (human, UniProt Q9UGN4 181-299, limits assumed); assay: cell-based or functional assay
[5] = biological target: T5, full length human PD-1 on HEK293/hPD-1 cells (human, UniProt Q15116 25-288); assay: FACS dose response, HEK293/hPD-1 cells; EC50 Inconclusive
monkey PD-1 with mFc [6] = biological target: T3, monkey PD-1 with mFc; assay: SPR, captured mAb, 37 C;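 also: Real-time Biacore surface plasmon resonance biosensor readout of PD-1 reagent binding to purified anti-PD-1 monoclonal antibodies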
[7] = biological target: T4, PD-1 chimera: extracellular domain of …; assay: cell-based or functional assay; remark: listed apart in the source
[8] = biological target: T5, full length human PD-1 on HEK293/hPD-1 …; assay: FACS dose response, HEK293/hPD-1 cells
[9] = biological target: T6, human PD-1 dimer (human PD-1-mFc or human PD-1-hFc) (human, UniProt Q15116 25-170); assay: SPR, mAb captured, 25C;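 also: surface plasmon resonance on Biacore, PD-1 flowed over captured anti-PD-1 antibodies, rate constants from a 1:1 binding model fit, KD taken as kd/ka and t½ as ln2/(60·kd)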
T6 construct: also called hPD-1-mFc; hPD1-hFc

[10] = biological target: T6, human PD-1 dimer (human PD-1-mFc or …); assay: SPR, mAb captured, 37C;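 also: Real-time Biacore biosensor, PD-1 dimer flowed over anti-PD-1 antibody surface, rate constants fitted to a 1:1 model, KD derived as kd/ka and t½ as ln2/(60·kd)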
[11] = biological target: T7, recombinant cynomolgus monkey PD-1 expressed with a C-terminal myc-myc-hexahistidine tag (cynomolgus monkey (Macaca fascicularis)); assay: SPR, mAb captured, 25C; 25 C
T7 construct: monomeric; also called MfPD-1-MMH
T7 chain: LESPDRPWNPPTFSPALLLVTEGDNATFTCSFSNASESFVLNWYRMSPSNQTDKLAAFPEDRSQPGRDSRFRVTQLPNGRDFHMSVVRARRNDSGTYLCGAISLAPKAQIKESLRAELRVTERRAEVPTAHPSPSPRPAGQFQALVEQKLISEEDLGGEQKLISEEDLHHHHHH

T2 sequence (chain, as listed by the source limits assumed): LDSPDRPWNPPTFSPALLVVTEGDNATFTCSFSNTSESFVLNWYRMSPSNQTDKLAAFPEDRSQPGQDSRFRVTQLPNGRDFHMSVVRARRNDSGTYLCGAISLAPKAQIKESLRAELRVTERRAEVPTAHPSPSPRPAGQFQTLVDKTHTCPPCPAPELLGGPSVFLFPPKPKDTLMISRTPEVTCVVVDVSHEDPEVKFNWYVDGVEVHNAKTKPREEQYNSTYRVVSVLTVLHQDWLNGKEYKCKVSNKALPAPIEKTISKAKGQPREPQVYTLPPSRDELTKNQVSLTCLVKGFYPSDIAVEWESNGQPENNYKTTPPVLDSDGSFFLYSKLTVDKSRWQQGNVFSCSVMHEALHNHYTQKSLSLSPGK
T4 sequence (Q9UGN4 other isoform, or with tags, fused parts or gaps mutant limits assumed, form in doubt): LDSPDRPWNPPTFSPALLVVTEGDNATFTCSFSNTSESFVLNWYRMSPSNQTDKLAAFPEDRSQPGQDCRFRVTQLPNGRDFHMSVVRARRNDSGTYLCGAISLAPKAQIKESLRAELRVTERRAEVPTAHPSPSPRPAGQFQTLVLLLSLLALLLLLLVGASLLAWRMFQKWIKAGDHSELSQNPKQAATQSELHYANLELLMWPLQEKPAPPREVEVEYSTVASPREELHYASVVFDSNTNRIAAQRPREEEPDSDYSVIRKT
T6 sequence (Q15116 25-170 C93S): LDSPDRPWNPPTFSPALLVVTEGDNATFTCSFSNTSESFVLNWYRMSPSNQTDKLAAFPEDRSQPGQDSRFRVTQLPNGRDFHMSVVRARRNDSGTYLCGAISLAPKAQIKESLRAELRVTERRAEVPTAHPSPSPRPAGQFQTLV
T5 sequence (Q15116 25-288 limits assumed): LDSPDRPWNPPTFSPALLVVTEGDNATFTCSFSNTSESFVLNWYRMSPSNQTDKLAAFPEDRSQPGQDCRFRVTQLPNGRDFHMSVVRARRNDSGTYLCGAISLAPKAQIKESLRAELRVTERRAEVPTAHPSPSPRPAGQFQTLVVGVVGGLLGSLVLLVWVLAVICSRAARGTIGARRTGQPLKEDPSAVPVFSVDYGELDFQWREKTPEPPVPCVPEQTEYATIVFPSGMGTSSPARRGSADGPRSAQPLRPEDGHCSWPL

B1: H4H7795N2 (antibody, human IgG4 S228P, kappa, V domains shown)
VH: EVQVVESGGGLVEPGRSLRLSCKASGFTFDDYAMHWVRQTPGKALEWVSGISWSGNNIGYADSVKGRFTISKDDAKNSLYLQMNSLRPEDTALYYCTKDISITGTLDAFDVWGQGTMVTVSS
VL: DIQMTQSPISVSASVGDRVTITCRASQGISNWLAWYQQKPGIAPKLLIYSASSLQSGVPSRFRGSGSGTDFTLTIGSLQPEDFATYYCQQAHSFPLTFGGGTKVEIKR
notes: human IgG4 Fc
500 nM of anti-PD-1 monoclonal antibody (RU) [1]: -5 RU
% Blocking [2]: 106%
binding of the mixture (RU) [2]: -6 RU
100 nM Monkey PD-1-mFc Bound (RU) (monkey PD-1 with mFc [3]): 60 RU
Kd (monkey PD-1 with mFc [3]): 0.621 nM
koff (monkey PD-1 with mFc [3]): 9.92e-05 s⁻¹
kon (monkey PD-1 with mFc [3]): 160000 M⁻¹ s⁻¹
t1/2 (monkey PD-1 with mFc [3]): 1.93 h
Emax mean [%] @ 100 nM [4]: 110%
Max Geom. Mean MFI @ 100 nM [5]: 15200 MFI
100 nM Monkey PD-1-mFc Bound (RU) (monkey PD-1 with mFc [6]): 47 RU
Kd (monkey PD-1 with mFc [6]): 1.71 nM
koff (monkey PD-1 with mFc [6]): 0.00029 s⁻¹
kon (monkey PD-1 with mFc [6]): 170000 M⁻¹ s⁻¹
t1/2 (monkey PD-1 with mFc [6]): 0.667 h

B2: H4H7798N (antibody, human IgG4 S228P, kappa, V domains shown)
VH: EVQLLESGGVLVQPGGSLRLSCAASGFTFSNFGMTWVRQAPGKGLEWVSGISGGGRDTYFADSVKGRFTISRDNSKNTLYLQMNSLKGEDTAVYYCVKWGNIYFDYWGQGTLVTVSS
VL: DIQMTQSPSSLSASVGDSITITCRASLSINTFLNWYQQKPGKAPNLLIYAASSLHGGVPSRFSGSGSGTDFTLTIRTLQPEDFATYYCQQSSNTPFTFGPGTVVDFRR
notes: human IgG4 Fc
500 nM of anti-PD-1 monoclonal antibody (RU) [1]: -6 RU
% Blocking [2]: 106%
binding of the mixture (RU) [2]: -6 RU
Concentration (M) of Antibody at 150% activation [7]: 1.54e-09 M
Emax mean [%] @ 100 nM [7]: 202%
100 nM Monkey PD-1-mFc Bound (RU) (monkey PD-1 with mFc [3]): 93 RU
Kd (monkey PD-1 with mFc [3]): 0.137 nM
koff (monkey PD-1 with mFc [3]): 6.14e-05 s⁻¹
kon (monkey PD-1 with mFc [3]): 449000 M⁻¹ s⁻¹
t1/2 (monkey PD-1 with mFc [3]): 3.13 h
EC50 [8]: 0.509 nM
Max Geom. Mean MFI @ 100 nM [8]: 20300 MFI
Emax mean [%] @ 100 nM [4]: 343%
100 nM Monkey PD-1-mFc Bound (RU) (monkey PD-1 with mFc [6]): 88 RU
Kd (monkey PD-1 with mFc [6]): 0.202 nM
koff (monkey PD-1 with mFc [6]): 0.000127 s⁻¹
kon (monkey PD-1 with mFc [6]): 630000 M⁻¹ s⁻¹
t1/2 (monkey PD-1 with mFc [6]): 1.52 h

Results, then the binder that gave them:

500 nM of anti-PD-1 monoclonal antibody (RU) [1]: -7 RU
% Blocking [2]: 107%
binding of the mixture (RU) [2]: -7 RU
Emax mean [%] @ 100 nM [4]: 150%
Max Geom. Mean MFI @ 100 nM [5]: 32200 MFI
B3: H4H9008P (antibody, human IgG4 S228P, kappa, V domains shown)
VH: EVQLVESGGGLVRPGGSLRLSCAASGFTFSTYAMAWVRQTPGKGLEGVSAIGGSGDSTYYVDSVKGRFTISRDNSKSTLFLQMNSLRAEDTAVYYCVKVRNYDGSFDIWGQGTMVTVSS
VL: not shown
notes: human IgG4 Fc

Kd [9]: 1.75 nM
koff [9]: 0.000177 s⁻¹
kon [9]: 101000 M⁻¹ s⁻¹
t½ [9]: 1.08 h
Kd [10]: 9.07 nM
koff [10]: 0.00211 s⁻¹
kon [10]: 233000 M⁻¹ s⁻¹
t½ [10]: 5 min
Kd [11]: 551 nM
koff [11]: 0.0191 s⁻¹
kon [11]: 34600 M⁻¹ s⁻¹
t½ [11]: 36 s
B4: H4H9057P2 (antibody, human IgG4, V domains shown)
VH: EVQLVESGGGLVQSGRSLRLSCAASGFTFDDYAMHWVRQPPGKGLEWVSGINWNRGRTGYADSVKGRFTISRDNAKNSLYLQMNDLRVEDTALYYCAKAEQWLDEGYFDYWGQGTLVTVSS
VL: not shown
notes: Fully human; H4H prefix (human IgG4 Fc)

EC50 [8]: 1.6 nM
Max Geom. Mean MFI @ 100 nM [8]: 39800 MFI
Emax mean [%] @ 100 nM [4]: 134%
B5: H4H9048P2 (antibody, human IgG4 S228P, kappa, V domains shown)
VH: QVQLVQSGAEVKRPGSSVKVSCKVSGVTFRNFAIIWVRQAPGQGLEWMGGIIPFFSAANYAQSFQGRVTITPDESTSTAFMELASLRSEDTAVYYCAREGERGHTYGFDYWGQGTLVTVSS
VL: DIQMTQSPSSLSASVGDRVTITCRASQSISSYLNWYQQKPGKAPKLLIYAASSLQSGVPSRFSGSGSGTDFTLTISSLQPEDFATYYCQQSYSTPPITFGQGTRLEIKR
notes: human IgG4 Fc
